Columns and labels:
[1] = tested on: Huh7D cells; assay: Steatosis in Huh7D cells cultured in fatty medium, Nile Red stain; type: cell-based; conditions: Huh7D cells 4 days in fatty medium, then treated 3 days in fatty medium; Nile Red fluorescence; agents at 1 μg/mL unless otherwise specified
Description: FIG. 1A-1D: Relative lipid accumulation of Huh 7D cells when cultured on fatty medium and treated with various anti-CD24 agents. Agents were added at 1 μg/mL unless otherwise specified as in the Fab. MOSW1, SWA11, ML5, SN3: mouse anti human CD24 antibodies; MOSW2: SWA11 antibody with point mutations to silent complement activity; MOSW3: SWA11 antibody with point mutations to silent complement activity, antibody-dependent cytotoxicity (ADCC) and antibody-dependent cellular phagocytosis (ADCP); Fab: Fab of SWA11 antibody, G7s: scFv against human and mouse CD24; TW2, TW6, V2, V3, V4, V6, V7, V8, V9, V10, V14, V15, V16: different humanized anti-CD24 antibodies; hIgG: human IgG isotype control. FIG. 1A: anti-steatosis activity of SWA-11, Fab, TW2, TW6 and G7S; FIG. 1B: anti-steatosis activity of V2, V3, V4, V6, V7, V8, V9, V10, V14, V15, V16; FIG. 1C: anti-steatosis of SWA11, Fab, ML5, SN3, MOSW1, MOSW2, MOSW3; FIG. 1D: anti-steatosis of 3 small molecules that bind CD24.
Specifically, Huh7 cells, which are liver hepatoma cells, were cultured in 1% DMSO (Huh7D cells) and then supplemented with fatty medium to induce steatosis. […] To determine the degree of steatosis, cells were stained with 1 mg/ml Nile Red solution (Sigma Aldrich) in cell culture medium for 15 mins at 37° C. and florescence signal was measured.

[2] = tested on: NSG mice with humanized livers; assay: NSG mice with humanized livers on HFD: graft survival, human albumin, CT; type: in vivo, mouse
Description: In order to determine the effect of anti-CD24 agent in a more physiologic model of human fatty liver disease, we used a mouse model in which human liver can be engrafted. Briefly, NSG mice with humanized livers were prepared using the RAAPID-TKG method. These mice contain chimeric livers that harbor both murine and human hepatocytes and the degree of human liver engraftment can be ascertained by measuring serum human albumin. 2 mice with similar degrees of human liver engraftment, as measured by baseline serum human albumin, were placed on HFD for 6 weeks and then treated with either IgG control or an anti-CD24 antibody—which we term MOSW3—whose Fc has been engineered to contain point mutations that abrogate ADCC, ADCP, as well as compliment binding activity, i.e., Fc-silent antibody. Antibodies were dosed at 25 μg twice a week.

For `O=C(O)c1ccccc1C(=O)c1cn(-c2ccc(F)cc2)[n+]([O-])n1` [A], the “anti-steatosis efficacy (relative lipid accumulation)” value [1] was “anti-steatosis efficacy”.

For `Cc1cccc(-n2nc([N+](=O)[O-])c(NCc3ccc(F)cc3)[n+]2[O-])c1` [B], the “anti-steatosis efficacy (relative lipid accumulation)” value [1] was “anti-steatosis efficacy”.

B1: MOSW3: SWA11 mouse IgG2a, C1q and Fc silenced (L234A, L235A, K320A, K322A, P329G); SEQ ID NO: 17 and 34 (antibody)
heavy: DVQLQESGPDLVKPSQSLSLTCTVTGYSITSGYTWHWIRQFPGNTVEWMGYIQYTGSTRYNPALRGRLSISRDTSKNQFFLQLISVTTADTGTYFCARGTTASFDYWGQGTTLTVASAKTTAPSVYPLAPVCGDTTGSSVTLGCLVKGYFPEPVTLTWNSGSLSSGVHTFPAVLQSDLYTLSSSVTVTSSTWPSQSITCNVAHPASSTKVDKKIEPRGPTIKPCPPCKCPAPNAAGGPSVFIFPPKIKDVLMISLSPIVTCVVVDVSEDDPDVQISWFVNNVEVHTAQTQTHREDYNSTLRVVSALPIQHQDWMSGKEFACAVNNKDLGAPIERTISKPKGSVRAPQVYVLPPPEEEMTKKQVTLTCMVTDFMPEDIYVEWTNNGKTELNYKNTEPVLDSDGSYFMYSKLRVEKKNWVERNSYSCSVVHEGLHNHHTTKSFSRTPGK
light: DIVMSQSPSSLNVSVGEKVTMRCRSSQSLLYSSDQKNYLTWYQQKPGQSPKLLISWASTRASGVPDRFTGSGSGTDFTLTISSVKAEDLGVYYCQQYFIYPLTFGVGTKLGLKRADAAPTVSIFPPSSEQLTSGGASVVCFLNNFYPKDINVKWKIDGSERQNGVLNSWTDQDSKDSTYSMSSTLTLTKDEYERHNSYTCEATHKTSTSPIVKSFNRNEC
In the case of B1, the “steatosis on liver CT scan” value ([2]; 3 weeks post treatment, IgG treated mouse vs MOSW3 treated mouse) is reported as “The IgG treated mouse showed higher level of steatosis (FIG. 9B) compared to the MOSW3 treated mouse”, the “human liver graft survival” value ([2]; HFD 6 weeks, then 25 μg twice a week, vs IgG control) is reported as “longer graft survival” and the serum human albumin ([2]; humanized-liver NSG mice, HFD 6 weeks, then 25 μg twice a week, weekly serum for 3 weeks, vs IgG control) is reported as “maintenance of serum human albumin”.

From patent US20250304711A1, “Methods and Compositions for Treating Obesity, Obesity-Related Diseases, Fatty Liver and Fatty Liver Associated Diseases with Anti-CD24 Agents” (The Board of Trustees of the Leland Stanford Junior …, priority 2022, published 2025)
